From the supplement of paper PMC9112550, “Optimization of the antimicrobial peptide Bac7 by deep mutational scanning” (BMC Biology, 2022)

Test system: Escherichia coli TOP10
Test: shrunken log2 fold change of peptide-encoding DNA abundance (4.5 h post-induction vs induction); higher = less antimicrobial activity (less host growth inhibition)
Conditions: time post-induction: 4.5 h; library: site-saturation at positions 5, 18, 19, 20
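Further: peptides expressed intracellularly from a pBAD plasmid library in pooled LB shake-flask culture, induced with 0.3% L-arabinose, DNA abundance read by NGS, three biological replicates, DESeq2 with apeglm shrinkage.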

Sequence | shrunken log2 fold change
RRIRERPPRLPRPRPRPEAPPRP | 0.406
RRIRYRPPRLPRPRPRPHTPPRP | -0.346
RRIRSRPPRLPRPRPRPHSMPRP | -0.521
RRIRTRPPRLPRPRPRPERHPRP | -0.0333
RRIRTRPPRLPRPRPRPCAMPRP | -0.111
RRIRYRPPRLPRPRPRPEPPPRP | 0.49
RRIRYRPPRLPRPRPRPHTTPRP | -0.0318
RRIRLRPPRLPRPRPRPATRPRP | 0.145
RRIRVRPPRLPRPRPRPDDQPRP | -0.00455
RRIRKRPPRLPRPRPRPERNPRP | 0.683
RRIRNRPPRLPRPRPRPDIIPRP | -0.0869
RRIRARPPRLPRPRPRPHLCPRP | 0.202
RRIRERPPRLPRPRPRPKVMPRP | 0.0306
RRIRVRPPRLPRPRPRPQWAPRP | -0.0201
RRIRERPPRLPRPRPRPAFMPRP | -0.154
RRIRPRPPRLPRPRPRPIEHPRP | -0.186
RRIRARPPRLPRPRPRPSTQPRP | 0.265
RRIRKRPPRLPRPRPRPPMAPRP | 0.41
RRIRQRPPRLPRPRPRPAAVPRP | -0.0726
RRIRSRPPRLPRPRPRPLAHPRP | -0.0709
RRIRNRPPRLPRPRPRPMLYPRP | -0.318
RRIRHRPPRLPRPRPRPCYMPRP | -0.494
RRIRKRPPRLPRPRPRPQWQPRP | 0.0827
RRIRPRPPRLPRPRPRPAMHPRP | 0.367
RRIRVRPPRLPRPRPRPVSSPRP | 0.105

Sequence | shrunken log2 fold change
RRIRRRPPRLPRPRPRPVAEPRP | 0.663
RRIRTRPPRLPRPRPRPAKEPRP | -0.0337
RRIRFRPPRLPRPRPRPFGIPRP | -0.197
RRIRDRPPRLPRPRPRPAPLPRP | 0.445
RRIRERPPRLPRPRPRPKQAPRP | 0.156
RRIRWRPPRLPRPRPRPLHWPRP | 0.296
RRIRQRPPRLPRPRPRPPALPRP | -0.179
RRIRTRPPRLPRPRPRPEIYPRP | -0.329
RRIRGRPPRLPRPRPRPNIPPRP | -0.251
RRIRWRPPRLPRPRPRPHHPPRP | 0.0415
RRIRQRPPRLPRPRPRPFQTPRP | -0.01
RRIRWRPPRLPRPRPRPWMVPRP | 0.0468
RRIRDRPPRLPRPRPRPGMMPRP | 0.0672
RRIRARPPRLPRPRPRPMQGPRP | 0.601
RRIRPRPPRLPRPRPRPHWCPRP | -0.159
RRIRDRPPRLPRPRPRPCHFPRP | -0.105
RRIRLRPPRLPRPRPRPEVVPRP | 0.0493
RRIRGRPPRLPRPRPRPPDWPRP | 1.24
RRIRLRPPRLPRPRPRPTIAPRP | -0.183
RRIRCRPPRLPRPRPRPCIYPRP | -0.253
RRIRGRPPRLPRPRPRPRHQPRP | 0.026
RRIRNRPPRLPRPRPRPCKYPRP | -1.14
RRIRQRPPRLPRPRPRPVHRPRP | -0.0635
RRIRNRPPRLPRPRPRPRFWPRP | 0.395
RRIRMRPPRLPRPRPRPHRMPRP | -0.0254

Sequence | shrunken log2 fold change
RRIRERPPRLPRPRPRPINVPRP | 0.017
RRIRVRPPRLPRPRPRPKYPPRP | -0.188
RRIRIRPPRLPRPRPRPKCSPRP | 0.0422
RRIRWRPPRLPRPRPRPADHPRP | 0.193
RRIRWRPPRLPRPRPRPTHVPRP | 0.316
RRIRFRPPRLPRPRPRPKAWPRP | 0.0254
RRIRWRPPRLPRPRPRPVVFPRP | 0.0685
RRIRSRPPRLPRPRPRPYYEPRP | -0.628
RRIRWRPPRLPRPRPRPEYWPRP | 0.388
RRIRRRPPRLPRPRPRPYHWPRP | -0.48
RRIRCRPPRLPRPRPRPVFFPRP | -0.0521
RRIRDRPPRLPRPRPRPGFVPRP | 0.0977
RRIRKRPPRLPRPRPRPIMRPRP | -0.00968
RRIRIRPPRLPRPRPRPYCRPRP | 0.182
RRIRLRPPRLPRPRPRPPVFPRP | 0.0392
RRIRDRPPRLPRPRPRPNLCPRP | 0.0227
RRIRVRPPRLPRPRPRPNLHPRP | -0.239
RRIRSRPPRLPRPRPRPVSRPRP | -0.0166
RRIRQRPPRLPRPRPRPIFMPRP | -0.00126
RRIRARPPRLPRPRPRPEYPPRP | 0.0126
RRIRSRPPRLPRPRPRPSPFPRP | -0.191
RRIRVRPPRLPRPRPRPHNEPRP | -0.811
RRIRKRPPRLPRPRPRPCENPRP | 0.0184
RRIRQRPPRLPRPRPRPNHDPRP | -0.509
RRIRRRPPRLPRPRPRPQQYPRP | -0.0784

Sequence | shrunken log2 fold change
RRIRTRPPRLPRPRPRPGVPPRP | 0.202
RRIRCRPPRLPRPRPRPFPWPRP | -0.361
RRIRMRPPRLPRPRPRPEREPRP | 1.76
RRIRMRPPRLPRPRPRPFRVPRP | 0.22
RRIRWRPPRLPRPRPRPPPQPRP | 0.905
RRIRQRPPRLPRPRPRPSLMPRP | -0.112
RRIRRRPPRLPRPRPRPIREPRP | 0.208
RRIRARPPRLPRPRPRPHCKPRP | 0.0852
RRIRLRPPRLPRPRPRPQHFPRP | -0.343
RRIRCRPPRLPRPRPRPLELPRP | 0.172
RRIRRRPPRLPRPRPRPHDAPRP | 0.197
RRIRMRPPRLPRPRPRPWVRPRP | 0.0882
RRIRDRPPRLPRPRPRPFQKPRP | 0.158
RRIRIRPPRLPRPRPRPVWIPRP | -0.242
RRIRQRPPRLPRPRPRPDECPRP | 0.0568
RRIRVRPPRLPRPRPRPIGFPRP | 0.187
RRIRNRPPRLPRPRPRPSVMPRP | -0.281
RRIRLRPPRLPRPRPRPFQEPRP | -0.274
RRIRERPPRLPRPRPRPFAEPRP | -0.326
RRIRIRPPRLPRPRPRPFFRPRP | -0.636
RRIRFRPPRLPRPRPRPWHDPRP | 0.0237
RRIRIRPPRLPRPRPRPDWNPRP | -0.993
RRIRNRPPRLPRPRPRPYMWPRP | -0.328
RRIRYRPPRLPRPRPRPHEMPRP | 2.66
RRIRFRPPRLPRPRPRPHDAPRP | 0.293

Sequence | shrunken log2 fold change
RRIRVRPPRLPRPRPRPCDVPRP | 0.0119
RRIRCRPPRLPRPRPRPAKSPRP | 0.448
RRIRWRPPRLPRPRPRPNCHPRP | 0.0398
RRIRDRPPRLPRPRPRPVFCPRP | 0.0325
RRIRIRPPRLPRPRPRPCPTPRP | -0.0511
RRIRTRPPRLPRPRPRPKLDPRP | 0.2
RRIRARPPRLPRPRPRPQNKPRP | -0.232
RRIRSRPPRLPRPRPRPEKHPRP | -0.211
RRIRIRPPRLPRPRPRPEWNPRP | -0.332
RRIRNRPPRLPRPRPRPGFRPRP | 0.114
RRIRPRPPRLPRPRPRPVIHPRP | -0.435
RRIRTRPPRLPRPRPRPMFEPRP | -0.171
RRIRMRPPRLPRPRPRPKTHPRP | 0.612
RRIRPRPPRLPRPRPRPYCVPRP | -0.479
RRIRRRPPRLPRPRPRPWSWPRP | -0.0122
RRIRFRPPRLPRPRPRPVTIPRP | -0.118
RRIRERPPRLPRPRPRPLCKPRP | -0.304
RRIRHRPPRLPRPRPRPRGCPRP | 0.387
RRIRNRPPRLPRPRPRPNFRPRP | 0.0289
RRIRERPPRLPRPRPRPIHIPRP | 0.0108
RRIRYRPPRLPRPRPRPIDEPRP | -0.438
RRIRDRPPRLPRPRPRPSKPPRP | -0.0858
RRIRPRPPRLPRPRPRPHKAPRP | 0.0705
RRIRYRPPRLPRPRPRPAQYPRP | -0.562
RRIRRRPPRLPRPRPRPENRPRP | 0.0232

Sequence | shrunken log2 fold change
RRIRVRPPRLPRPRPRPMDRPRP | -0.308
RRIRKRPPRLPRPRPRPTSKPRP | 0.443
RRIRVRPPRLPRPRPRPTHSPRP | 0.156
RRIRNRPPRLPRPRPRPTCSPRP | -0.261
RRIRMRPPRLPRPRPRPDSAPRP | 0.599
RRIRIRPPRLPRPRPRPMYNPRP | -0.429
RRIRCRPPRLPRPRPRPCECPRP | -0.0911
RRIRKRPPRLPRPRPRPHDLPRP | 0.00698
RRIRVRPPRLPRPRPRPRPEPRP | 0.609
RRIRCRPPRLPRPRPRPNFTPRP | -0.158
RRIRSRPPRLPRPRPRPFQLPRP | -0.0513
RRIRTRPPRLPRPRPRPHINPRP | -0.454
RRIRSRPPRLPRPRPRPDANPRP | 0.183
RRIRDRPPRLPRPRPRPSMYPRP | -0.105
RRIRNRPPRLPRPRPRPYFYPRP | -0.345
RRIRSRPPRLPRPRPRPDLCPRP | -0.159
RRIRARPPRLPRPRPRPANCPRP | 0.186
RRIRLRPPRLPRPRPRPADKPRP | 0.122
RRIRPRPPRLPRPRPRPPPRPRP | 0.91
RRIRMRPPRLPRPRPRPDQEPRP | 0.0392
RRIRARPPRLPRPRPRPMQAPRP | -0.00917
RRIRTRPPRLPRPRPRPTSHPRP | -0.478
RRIRTRPPRLPRPRPRPLMFPRP | -0.516
RRIRKRPPRLPRPRPRPKFKPRP | 0.241
RRIRARPPRLPRPRPRPASAPRP | 0.52
